Measurements reported in article PMC5571939, “The nature of the Syntaxin4 C-terminus affects Munc18c-supported SNARE assembly” (PLoS ONE, 2017).

B2: Munc18c (de-tagged) (natural protein, mouse, UniProt Q60770 1-592, looked up)
chain: MAPPVSERGLKSVVWRKIKTAVFDDCRKEGEWKIMLLDEFTTKLLSSCCKMTDLLEEGITVIENIYKNREPVRQMKALYFISPTPKSVDCFLRDFGSKSEKKYKAAYIYFTDFCPDSLFNKIKASCSKSIRRCKEINISFIPQESQVYTLDVPDAFYYCYSPDPSNASRKEVVMEAMAEQIVTVCATLDENPGVRYKSKPLDNASKLAQLVEKKLEDYYKIDEKGLIKGKTQSQLLIIDRGFDPVSTVLHELTFQAMAYDLLPIENDTYKYKTDGKEKEAVLEEDDDLWVRVRHRHIAVVLEEIPKLMKEISSTKKATEGKTSLSALTQLMKKMPHFRKQISKQVVHLNLAEDCMNKFKLNIEKLCKTEQDLALGTDAEGQRVKDSMLVLLPVLLNKNHDNCDKIRAVLLYIFGINGTTEENLDRLIHNVKIEDDSDMIRNWSHLGVPIVPPSQQAKPLRKDRSAEETFQLSRWTPFIKDIMEDAIDNRLDSKEWPYCSRCPAVWNGSGAVSARQKPRTNYLELDRKNGSRLIIFVIGGITYSEMRCAYEVSQAHKSCEVIIGSTHILTPRKLLDDIKMLNKSKDKVSFKDE
notes: Munc18c (Munc18-3), mouse; also called detagged Munc18c; HTMunc18c after TEV cleavage; source: E. coli, purified (IMAC, TEV cleavage, reverse IMAC, SEC); not shown: His6, N-terminal, cleaved

Tests used:
Conditions in all cases: both partners purified
[1] = target: B2; assay: BLI; C-terminally His-tagged Sx4 constructs loaded on Ni-NTA biosensors; de-tagged Munc18c 10/25–400 nM in solution; 25 mM Tris-Cl pH 7.5, 150 mM NaCl, 10 mM imidazole, 0.1% TX-100, 10% glycerol, 2 mM βME; BLItz; 1:1 fit
[2] = target: T1, Sx4_(1-275)-T4L-His (rat | phage T4 (from the name T4 …, UniProt Q08850 1-275; P00720 1-164, C141S); assay: as above
T1 construct: T4 lysozyme (T4L), amino acids 1-164, synthetic gene (GeneArt); Sx4 ligated between NdeI and HindIII, T4L between HindIII and XhoI of pET20b; also called Sx4 cytoplasmic domain with C-terminal T4-lysozyme fusion and His6; source: E. coli, purified; not shown: His6, C-terminal, kept

[3] = target: T2, Alexa488-labeled Sx4_(1-275)-T4L-His (native C141) (rat | phage T4 (from the name T4 …, UniProt Q08850 1-275)); P00720 1-164, Alexa Fluor 488 C5 maleimide on cysteine (native C141 rather than C141S)); assay: fluorescence polarisation; fluorescence anisotropy kinetics, both in solution: Alexa488-labeled Sx4 (50 nM) with HMunc18c at 100–2500 nM; 25°C; 25 mM HEPES pH 8.0, 200 mM NaCl, 1 mM TCEP, 2% glycerol; global 1:1 fit (Dynafit 4.0)
T2 construct: T4 lysozyme (T4L), amino acids 1-164, synthetic gene (GeneArt); Degree of labeling greater than 90%; not shown: His6, C-terminal, kept

[4] = target: T1, Sx4_(1-275)-T4L-His; assay: ITC; Sx4-T4L-His construct (200–250 μM) titrated into HMunc18c (20–40 μM) in the cell; 298 K; 25 mM HEPES pH 8.0, 200 mM NaCl, 10% glycerol, 2 mM β-ME; single site model

B1: Sx4_(1-275)-His (domain or fragment, rat, UniProt Q08850 1-275, looked up)
chain: MRDRTHELRQGDNISDDEDEVRVALVVHSGAARLSSPDDEFFQKVQTIRQTMAKLESKVRELEKQQVTILATPLPEESMKQGLQNLREEIKQLGREVRAQLKAIEPQKEEADENYNSVNTRMKKTQHGVLSQQFVELINKSNSMQSEYREKNVERIRRQLKITNAGMVSDEELEQMLDSGQSEVFVSNILKDTQVTRQALNEISARHSEIQQLERSIRELHEIFTFLATEVEMQGEMINRIEKNILSSADYVERGQEHVKIALENQKKARKKKVM
notes: also called Syntaxin4 soluble cytoplasmic domain with C-terminal His6; source: E. coli, purified as described previously [17, 28]; not shown: His6, C-terminal, kept
[1]
  Kd: 21 nM
  koff: 0.0086 s⁻¹
  kon: 530000 M⁻¹ s⁻¹

## B2
[2]
  Kd: 20 nM
  koff: 0.0078 s⁻¹
  kon: 430000 M⁻¹ s⁻¹

B3: HMunc18c (natural protein, mouse, UniProt Q60770 1-592, looked up)
chain: MAPPVSERGLKSVVWRKIKTAVFDDCRKEGEWKIMLLDEFTTKLLSSCCKMTDLLEEGITVIENIYKNREPVRQMKALYFISPTPKSVDCFLRDFGSKSEKKYKAAYIYFTDFCPDSLFNKIKASCSKSIRRCKEINISFIPQESQVYTLDVPDAFYYCYSPDPSNASRKEVVMEAMAEQIVTVCATLDENPGVRYKSKPLDNASKLAQLVEKKLEDYYKIDEKGLIKGKTQSQLLIIDRGFDPVSTVLHELTFQAMAYDLLPIENDTYKYKTDGKEKEAVLEEDDDLWVRVRHRHIAVVLEEIPKLMKEISSTKKATEGKTSLSALTQLMKKMPHFRKQISKQVVHLNLAEDCMNKFKLNIEKLCKTEQDLALGTDAEGQRVKDSMLVLLPVLLNKNHDNCDKIRAVLLYIFGINGTTEENLDRLIHNVKIEDDSDMIRNWSHLGVPIVPPSQQAKPLRKDRSAEETFQLSRWTPFIKDIMEDAIDNRLDSKEWPYCSRCPAVWNGSGAVSARQKPRTNYLELDRKNGSRLIIFVIGGITYSEMRCAYEVSQAHKSCEVIIGSTHILTPRKLLDDIKMLNKSKDKVSFKDE
notes: Munc18c (Munc18-3), mouse; also called Munc18c with an N-terminal His6-tag; source: E. coli, purified as described previously [39]; not shown: His6, N-terminal, kept
[3]
  Kd: 148 nM
  koff: 7.5e-05 s⁻¹
  kon: 502 M⁻¹ s⁻¹
[4]
  Kd: 100 nM
